The record followed here is patent US20210032299A1 (Eli Lilly, published 2021).

Sequences and labels used below:
B1: Example 46 (peptide)
peptide: Y[Aib]EGTFISDYSI[αMeL]LDKK([AEEA-AEEA-γGlu-C20 diacid])HQ[Aib]DFVE[4Pal]LLEQGPSSGAPPPS-NH2
modifications: N-terminus assumed
SMILES: CC[C@H](C)[C@H](NC(=O)[C@H](Cc1ccccc1)NC(=O)[C@@H](NC(=O)CNC(=O)[C@H](CCC(=O)O)NC(=O)C(C)(C)NC(=O)[C@@H](N)Cc1ccc(O)cc1)[C@@H](C)O)C(=O)N[C@@H](CO)C(=O)N[C@@H](CC(=O)O)C(=O)N[C@@H](Cc1ccc(O)cc1)C(=O)N[C@@H](CO)C(=O)N[C@H](C(=O)N[C@@](C)(CC(C)C)C(=O)N[C@@H](CC(C)C)C(=O)N[C@@H](CC(=O)O)C(=O)N[C@@H](CCCCN)C(=O)N[C@@H](CCCCNC(=O)COCCOCCNC(=O)COCCOCCNC(=O)CC[C@H](NC(=O)CCCCCCCCCCCCCCCCCCC(=O)O)C(=O)O)C(=O)N[C@@H](Cc1c[nH]cn1)C(=O)N[C@@H](CCC(N)=O)C(=O)NC(C)(C)C(=O)N[C@@H](CC(=O)O)C(=O)N[C@@H](Cc1ccccc1)C(=O)N[C@H](C(=O)N[C@@H](CCC(=O)O)C(=O)N[C@@H](Cc1ccncc1)C(=O)N[C@@H](CC(C)C)C(=O)N[C@@H](CC(C)C)C(=O)N[C@@H](CCC(=O)O)C(=O)N[C@@H](CCC(N)=O)C(=O)NCC(=O)N1CCC[C@H]1C(=O)N[C@@H](CO)C(=O)N[C@@H](CO)C(=O)NCC(=O)N[C@@H](C)C(=O)N1CCC[C@H]1C(=O)N1CCC[C@H]1C(=O)N1CCC[C@H]1C(=O)N[C@@H](CO)C(N)=O)C(C)C)[C@@H](C)CC
B2: Example 47 (peptide)
peptide: Y[Aib]EGTFISDYSI[αMeL]LDKK([AEEA-AEEA-γGlu-C20 diacid])HQ[Aib]DFVE[4Pal]LLEGGPSSGAPPPS-NH2
modifications: N-terminus assumed
SMILES: CC[C@H](C)[C@H](NC(=O)[C@H](Cc1ccccc1)NC(=O)[C@@H](NC(=O)CNC(=O)[C@H](CCC(=O)O)NC(=O)C(C)(C)NC(=O)[C@@H](N)Cc1ccc(O)cc1)[C@@H](C)O)C(=O)N[C@@H](CO)C(=O)N[C@@H](CC(=O)O)C(=O)N[C@@H](Cc1ccc(O)cc1)C(=O)N[C@@H](CO)C(=O)N[C@H](C(=O)N[C@@](C)(CC(C)C)C(=O)N[C@@H](CC(C)C)C(=O)N[C@@H](CC(=O)O)C(=O)N[C@@H](CCCCN)C(=O)N[C@@H](CCCCNC(=O)COCCOCCNC(=O)COCCOCCNC(=O)CC[C@H](NC(=O)CCCCCCCCCCCCCCCCCCC(=O)O)C(=O)O)C(=O)N[C@@H](Cc1c[nH]cn1)C(=O)N[C@@H](CCC(N)=O)C(=O)NC(C)(C)C(=O)N[C@@H](CC(=O)O)C(=O)N[C@@H](Cc1ccccc1)C(=O)N[C@H](C(=O)N[C@@H](CCC(=O)O)C(=O)N[C@@H](Cc1ccncc1)C(=O)N[C@@H](CC(C)C)C(=O)N[C@@H](CC(C)C)C(=O)N[C@@H](CCC(=O)O)C(=O)NCC(=O)NCC(=O)N1CCC[C@H]1C(=O)N[C@@H](CO)C(=O)N[C@@H](CO)C(=O)NCC(=O)N[C@@H](C)C(=O)N1CCC[C@H]1C(=O)N1CCC[C@H]1C(=O)N1CCC[C@H]1C(=O)N[C@@H](CO)C(N)=O)C(C)C)[C@@H](C)CC
B3: Example 57 (peptide)
peptide: Y[Aib]EGTFISDYSI[αMeL]LDKK([AEEA-AEEA-γGlu-C20 diacid])HQ[Aib]EFVE[4Pal]LLAQGPSSGAPPPS-NH2
modifications: N-terminus assumed
SMILES: CC[C@H](C)[C@H](NC(=O)[C@H](Cc1ccccc1)NC(=O)[C@@H](NC(=O)CNC(=O)[C@H](CCC(=O)O)NC(=O)C(C)(C)NC(=O)[C@@H](N)Cc1ccc(O)cc1)[C@@H](C)O)C(=O)N[C@@H](CO)C(=O)N[C@@H](CC(=O)O)C(=O)N[C@@H](Cc1ccc(O)cc1)C(=O)N[C@@H](CO)C(=O)N[C@H](C(=O)N[C@@](C)(CC(C)C)C(=O)N[C@@H](CC(C)C)C(=O)N[C@@H](CC(=O)O)C(=O)N[C@@H](CCCCN)C(=O)N[C@@H](CCCCNC(=O)COCCOCCNC(=O)COCCOCCNC(=O)CC[C@H](NC(=O)CCCCCCCCCCCCCCCCCCC(=O)O)C(=O)O)C(=O)N[C@@H](Cc1c[nH]cn1)C(=O)N[C@@H](CCC(N)=O)C(=O)NC(C)(C)C(=O)N[C@@H](CCC(=O)O)C(=O)N[C@@H](Cc1ccccc1)C(=O)N[C@H](C(=O)N[C@@H](CCC(=O)O)C(=O)N[C@@H](Cc1ccncc1)C(=O)N[C@@H](CC(C)C)C(=O)N[C@@H](CC(C)C)C(=O)N[C@@H](C)C(=O)N[C@@H](CCC(N)=O)C(=O)NCC(=O)N1CCC[C@H]1C(=O)N[C@@H](CO)C(=O)N[C@@H](CO)C(=O)NCC(=O)N[C@@H](C)C(=O)N1CCC[C@H]1C(=O)N1CCC[C@H]1C(=O)N1CCC[C@H]1C(=O)N[C@@H](CO)C(N)=O)C(C)C)[C@@H](C)CC
B4: Example 52 (peptide)
peptide: Y[Aib]EGTFISDYSI[αMeL]LDKK([AEEA-AEEA-γGlu-C20 diacid])HQ[Aib]EFVE[4Pal]LLAGGPSSGAPPPS-NH2
modifications: N-terminus assumed
SMILES: CC[C@H](C)[C@H](NC(=O)[C@H](Cc1ccccc1)NC(=O)[C@@H](NC(=O)CNC(=O)[C@H](CCC(=O)O)NC(=O)C(C)(C)NC(=O)[C@@H](N)Cc1ccc(O)cc1)[C@@H](C)O)C(=O)N[C@@H](CO)C(=O)N[C@@H](CC(=O)O)C(=O)N[C@@H](Cc1ccc(O)cc1)C(=O)N[C@@H](CO)C(=O)N[C@H](C(=O)N[C@@](C)(CC(C)C)C(=O)N[C@@H](CC(C)C)C(=O)N[C@@H](CC(=O)O)C(=O)N[C@@H](CCCCN)C(=O)N[C@@H](CCCCNC(=O)COCCOCCNC(=O)COCCOCCNC(=O)CC[C@H](NC(=O)CCCCCCCCCCCCCCCCCCC(=O)O)C(=O)O)C(=O)N[C@@H](Cc1c[nH]cn1)C(=O)N[C@@H](CCC(N)=O)C(=O)NC(C)(C)C(=O)N[C@@H](CCC(=O)O)C(=O)N[C@@H](Cc1ccccc1)C(=O)N[C@H](C(=O)N[C@@H](CCC(=O)O)C(=O)N[C@@H](Cc1ccncc1)C(=O)N[C@@H](CC(C)C)C(=O)N[C@@H](CC(C)C)C(=O)N[C@@H](C)C(=O)NCC(=O)NCC(=O)N1CCC[C@H]1C(=O)N[C@@H](CO)C(=O)N[C@@H](CO)C(=O)NCC(=O)N[C@@H](C)C(=O)N1CCC[C@H]1C(=O)N1CCC[C@H]1C(=O)N1CCC[C@H]1C(=O)N[C@@H](CO)C(N)=O)C(C)C)[C@@H](C)CC
B5: Example 58 (peptide)
peptide: Y[Aib]EGTFISDYSI[αMeL]LDKK([AEEA-AEEA-γGlu-C20 diacid])HQ[Aib]EFVE[4Pal]LLATGPSSGAPPPS-NH2
modifications: N-terminus assumed
SMILES: CC[C@H](C)[C@H](NC(=O)[C@H](Cc1ccccc1)NC(=O)[C@@H](NC(=O)CNC(=O)[C@H](CCC(=O)O)NC(=O)C(C)(C)NC(=O)[C@@H](N)Cc1ccc(O)cc1)[C@@H](C)O)C(=O)N[C@@H](CO)C(=O)N[C@@H](CC(=O)O)C(=O)N[C@@H](Cc1ccc(O)cc1)C(=O)N[C@@H](CO)C(=O)N[C@H](C(=O)N[C@@](C)(CC(C)C)C(=O)N[C@@H](CC(C)C)C(=O)N[C@@H](CC(=O)O)C(=O)N[C@@H](CCCCN)C(=O)N[C@@H](CCCCNC(=O)COCCOCCNC(=O)COCCOCCNC(=O)CC[C@H](NC(=O)CCCCCCCCCCCCCCCCCCC(=O)O)C(=O)O)C(=O)N[C@@H](Cc1c[nH]cn1)C(=O)N[C@@H](CCC(N)=O)C(=O)NC(C)(C)C(=O)N[C@@H](CCC(=O)O)C(=O)N[C@@H](Cc1ccccc1)C(=O)N[C@H](C(=O)N[C@@H](CCC(=O)O)C(=O)N[C@@H](Cc1ccncc1)C(=O)N[C@@H](CC(C)C)C(=O)N[C@@H](CC(C)C)C(=O)N[C@@H](C)C(=O)N[C@H](C(=O)NCC(=O)N1CCC[C@H]1C(=O)N[C@@H](CO)C(=O)N[C@@H](CO)C(=O)NCC(=O)N[C@@H](C)C(=O)N1CCC[C@H]1C(=O)N1CCC[C@H]1C(=O)N1CCC[C@H]1C(=O)N[C@@H](CO)C(N)=O)[C@@H](C)O)C(C)C)[C@@H](C)CC

Starred links: 1 amine or outer side, 2 acyl side, 3 side chain; linkers in the order of their positions; H or OH if unused. Non-standard residues stand in square brackets, D forms with d. Groups on a side chain read outwards from the residue. No end group written: not given here. *: point of attachment. C20 diacid = O=C(O)CCCCCCCCCCCCCCCCCCC(=O)*; γGlu = O=C(O)[C@H](CCC(=O)[*:2])N[*:1]; 4Pal = N[C@@H](Cc1ccncc1)C(=O)O; αMeL = CC(C)C[C@](C)(N)C(=O)O; AEEA = NCCOCCOCC(=O)O; Aib = CC(C)(N)C(=O)O

T1 sequence (P47871 26-477): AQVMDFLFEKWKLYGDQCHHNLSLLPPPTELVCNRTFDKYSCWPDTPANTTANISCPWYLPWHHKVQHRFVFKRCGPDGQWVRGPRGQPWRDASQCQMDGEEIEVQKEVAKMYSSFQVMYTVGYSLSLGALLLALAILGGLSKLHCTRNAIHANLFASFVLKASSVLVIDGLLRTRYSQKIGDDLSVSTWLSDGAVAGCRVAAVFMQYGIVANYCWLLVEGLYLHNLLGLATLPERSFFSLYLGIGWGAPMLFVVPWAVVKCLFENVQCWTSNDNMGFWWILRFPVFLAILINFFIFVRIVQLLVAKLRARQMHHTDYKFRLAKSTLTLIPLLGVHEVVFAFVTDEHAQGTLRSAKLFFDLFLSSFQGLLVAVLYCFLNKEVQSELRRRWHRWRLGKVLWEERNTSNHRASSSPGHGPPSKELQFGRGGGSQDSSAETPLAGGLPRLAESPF

The first experiment concerns the target T1, human glucagon receptor (human, UniProt P47871 26-477).
T1 construct: whole, on cells; Assayed as crude membranes of stably transfected HEK293 cells; also called hGcgR; GcgR
The experiment in a line: SPA, displacement of [125I]-Gcg from hGcgR membranes, 0.1% bacitracin. As for the experimental part: The binding buffer contains 25 mM 4-(2-hydroxyethyl)-1-piperazineethanesulfonic acid (HEPES), pH 7.4, 2.5 mM CaCl₂), 1 mM MgCl₂, 0.1% (w/v) bacitracin (Research Products), 0.003% (w/v) Polyoxyethylenesorbitan monolaurate (TWEEN®-20), and Roche Complete™ Protease Inhibitors without EDTA. […] Plates are sealed and mixed on a plate shaker (setting 6) for 1 minute and read with a PerkinElmer Trilux MicroBeta® scintillation counter after 12 hours of incubation/settling time at room temperature.
Data are analyzed using four-parameter (curve maximum, curve minimum, […], Hill slope) nonlinear regression routines (Genedata Screener, version 12.0.4, Genedata AG, Basal, Switzerland). […] Values for Kᵢ are reported as the geometric mean, with error expressed as the standard error of the mean (SEM) and n is equal to the number of independent replicates (determined in assays performed on different days).
The Ki is a dissociation constant, usually derived from enzyme kinetics or from competition with a known ligand. Regarding B1, the inhibitory constant (Ki) amounted to 435 nM.
The molecule B2 yielded a Ki of 175 nM.
The same measure, in the same setting: for B3 the value was 422 nM.
The same measure, in the same setting: for B4 the value was 114 nM; for B5, 418 nM.

The next experiment concerns the target T2, human GLP-1 receptor (human, UniProt P43220 24-463).
T2 construct: whole, on cells; Assayed as crude membranes of stably transfected HEK293 cells; also called hGLP1R; hGLP-1R
The experiment in a line: SPA, displacement of [125I]-GLP-1 from hGLP-1R membranes, 0.1% bacitracin. The method, boiled down:
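Binding buffer: 25 mM HEPES pH 7.4, 2.5 mM CaCl₂, 1 mM MgCl₂, 0.1% bacitracin, 0.003% Tween-20, protease inhibitors without EDTA. Four-parameter nonlinear regression; Kᵢ given as geometric mean ± SEM, n = independent replicates run on different days.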
The molecule B1 returned an inhibition constant (Ki) of 744 nM.
Same read-out and setting: for B2 the value was 320 nM; for B3, 280 nM.
Same read-out and setting: for B4 the value was 128 nM; for B5, 459 nM.

In the next experiment the target is T3, human glucose-dependent insulinotropic polypeptide (GIP) receptor (human, UniProt P48546 22-466).
T3 construct: whole, on cells; Assayed as crude membranes of stably transfected CHO cells; also called hGIPR; human GIP receptor
T3 sequence (looked up): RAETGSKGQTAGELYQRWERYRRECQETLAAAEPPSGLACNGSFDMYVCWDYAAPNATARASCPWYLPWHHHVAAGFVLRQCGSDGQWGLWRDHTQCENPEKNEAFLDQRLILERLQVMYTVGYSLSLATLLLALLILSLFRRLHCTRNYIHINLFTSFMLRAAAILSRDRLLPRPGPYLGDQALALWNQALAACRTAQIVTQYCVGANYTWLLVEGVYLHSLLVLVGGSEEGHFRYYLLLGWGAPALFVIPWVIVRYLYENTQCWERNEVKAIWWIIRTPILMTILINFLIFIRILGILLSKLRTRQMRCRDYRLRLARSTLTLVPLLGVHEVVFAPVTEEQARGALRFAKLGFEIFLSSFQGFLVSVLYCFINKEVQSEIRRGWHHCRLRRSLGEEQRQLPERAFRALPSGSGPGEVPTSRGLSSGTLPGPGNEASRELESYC
Kind of experiment: SPA, displacement of [125I]-GIP from hGIPR membranes, 0.1% bacitracin.
B1 returned an inhibitory constant (Ki) of 0.0319 nM.
Still for that read-out and setting: for B2 the value was 0.0452 nM.
The same measure, in the same setting: for B3 the value was 0.0154 nM; for B4, 0.0372 nM.
The same measure, in the same setting: for B5 the value was 0.0324 nM.
